Measured values reported in article PMC13138344, “Embryonic stem cell factors DPPA2/4 amplify active H3K4me3–H2AK119ub chromatin domains in non-small cell lung cancer” (Genes & Development, 2026).

T1: developmental pluripotency-associated 2 (DPPA2) (human (endogenous in NCI-H661), UniProt Q7Z7J5 1-298)
T1 construct: DPPA2, human, endogenous in NCI-H661 non-small cell lung cancer cells; source: endogenous, NCI-H661 whole-cell lysate (IP-MS); endogenous, NCI-H661 double-cross-linked chromatin (RIME)
T1 sequence (looked up): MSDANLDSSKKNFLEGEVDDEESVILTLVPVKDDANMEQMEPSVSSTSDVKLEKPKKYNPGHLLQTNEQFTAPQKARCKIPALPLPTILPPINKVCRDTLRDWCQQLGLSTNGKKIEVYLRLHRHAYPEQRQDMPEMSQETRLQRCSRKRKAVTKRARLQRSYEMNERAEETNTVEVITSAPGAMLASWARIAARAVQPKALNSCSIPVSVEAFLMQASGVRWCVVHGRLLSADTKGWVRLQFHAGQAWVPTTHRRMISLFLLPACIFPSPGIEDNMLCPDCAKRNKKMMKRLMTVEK

B1: developmental pluripotency-associated 4 (DPPA4) (natural protein, human (endogenous in NCI-H661), UniProt Q7L190 1-304, looked up)
chain: MLRGSASSTSMEKAKGKEWTSTEKSREEDQQASNQPNSIALPGTSAKRTKEKMSIKGSKVLCPKKKAEHTDNPRPQKKIPIPPLPSKLPPVNLIHRDILRAWCQQLKLSSKGQKLDAYKRLCAFAYPNQKDFPSTAKEAKIRKSLQKKLKVEKGETSLQSSETHPPEVALPPVGEPPALENSTALLEGVNTVVVTTSAPEALLASWARISARARTPEAVESPQEASGVRWCVVHGKSLPADTDGWVHLQFHAGQAWVPEKQEGRVSALFLLPASNFPPPHLEDNMLCPKCVHRNKVLIKSLQWE
notes: DPPA4, human, endogenous in NCI-H661 non-small cell lung cancer cells; source: endogenous, NCI-H661 whole-cell lysate (IP-MS); endogenous, NCI-H661 double-cross-linked chromatin (RIME)
B2: recombinant DPPA2-Myc/FLAG protein (natural protein, human, UniProt Q7Z7J5 1-298, looked up)
chain: T1 sequence (looked up)
notes: DPPA2, human, recombinant; The construct is named only in the EMSA legend; source: recombinant
B3: recombinant His-DPPA4 protein (natural protein, human, UniProt Q7L190 1-304, looked up)
chain: B1 chain
notes: DPPA4, human, recombinant; The construct is named only in the EMSA legend; also called recombinant DPPA4; source: recombinant

Experiments:
[1] = target: T1, developmental pluripotency-associated 2 …; assay: affinity purification with mass spectrometry; IP of endogenous DPPA2 or DPPA4 from NCI-H661 whole-cell lysates, species-matched IgG IP control, label-free quantitation, n = 4 per condition; conditions: partners not purified
[2] = target: the molecule itself; assay: mass photometry; recombinant DPPA2 and DPPA4 in vitro, each on its own and together
[3] = target: B3; assay: as above; conditions: both partners purified

Binder | ratio between DPPA2 and DPPA4 (iBAQ) in the DPPA2 IP [1] | binding result [2] | binding result [3]
B1 | > 1 | – | –
B2 | – | binds | binds
B3 | – | binds | –
